Here are results for six molecules from patent US20230322924A1 (Janssen / Centocor, published 2023).

Assay [1] addresses T1, human PSMA on cells (LNCaP) (human, UniProt Q04609 1-750).
T1 construct: whole, on cells; also called LNCaP cells
In words: flow cytometry cell binding assay on LNCaP cells. As to the method: (§1) PSMA×CD3 bispecific antibodies were tested for binding to PSMA positive cell line, LNCAP, to PSMA negative cell line, PC3. To assess the binding capabilities of the PSMA bispecific antibodies, the cell-binding assay was utilized (described previously). Bispecific antibodies were normalized for protein concentration and then incubated with the same number of cells expressing either human or cyno PSMA. The MFI at each concentration was collected by flow cytometry and plotted as a function of concentration. Data was transformed via log 10 and then plotted. Nonlinear regression of binding curves was done to determine EC50s.
On the technique in general: Flow cytometry measures light scatter and fluorescence of single cells or particles in a stream.

For assay [2], the target named is T1, human PSMA on cells (LNCaP). In words: flow cytometry cell binding assay on LNCaP cells. As to the method:
as §1
The source holds these as a separate data set.

In assay [3] the target is T2, TMEW1 (TMEFF2-FL-ECD-His-Avitag) (human, UniProt Q9UIK5 41-320).
T2 construct: Human TMEFF2 ECD with C-terminal G3S, 6xHis tag and Avi-tag, all in the entry; also called TMEFF2 ECD
T2 sequence: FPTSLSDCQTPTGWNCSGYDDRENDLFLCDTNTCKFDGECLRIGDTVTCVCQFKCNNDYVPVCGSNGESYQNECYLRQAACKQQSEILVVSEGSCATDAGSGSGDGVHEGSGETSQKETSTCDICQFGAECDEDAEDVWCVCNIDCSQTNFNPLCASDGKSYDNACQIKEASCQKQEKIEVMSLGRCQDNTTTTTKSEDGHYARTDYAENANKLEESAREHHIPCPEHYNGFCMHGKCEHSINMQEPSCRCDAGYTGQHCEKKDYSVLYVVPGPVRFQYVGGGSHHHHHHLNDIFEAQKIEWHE
Briefly: ProteOn SPR, mAb captured on anti-human Fc, TMEFF2 as analyte. As to the method: (§2) The binding of anti-TMEFF2 mAbs to the ECD and the membrane proximal region of human TMEFF2 was measured by ProteOn SPR (Bio-Rad). The purified mAbs (diluted to a final concentration of 1 μg/ml in PBST) were used as ligands in the assay and were immobilized through Fc capture to Goat Anti-Human (GAH) IgG Fc. For amine coupling of the GAH IgG Fc, a 1:1 mixture of EDC (40 mM) and NHS (10 mM) were mixed immediately prior to injection to activate the chip surface and injected in the vertical orientation. GAH-Fc (at 30 μg/ml) antibody in acetate buffer (pH 5.0) was then flowed over the surface for 300 seconds at 30 μl/min in the vertical orientation. Any remaining reactive carboxyl groups in the surface were subsequently deactivated by injecting 1M Ethanolamine (pH 8.5) in the same orientation. The antibodies were used at a concentration of 1 μg/ml for immobilization. The antibodies were flowed over the surface in the horizontal direction. Human TMEFF2 ECD or the membrane proximal region in 3-fold dilution series of 5 concentrations (highest concentration ranging from 100-600 nM) was flowed in as analyte in the vertical orientation to bind to the captured molecules. A buffer sample was also injected in the 6th channel in the vertical direction to monitor any drift in the baseline signal. The association and dissociation phases for all concentrations were monitored over 3 minutes and 30 (or 15) minutes respectively, at a flow rate of 100 μL/min. The binding surface was regenerated for the next interaction cycle using an 18 second pulse of 0.8% phosphoric acid to remove the bound antigen. The raw data were processed by subtracting two sets of reference data from the response data: 1) the inter-spot signals to correct for the non-specific interactions between the antigen and the empty chip surface; 2) the empty channel signals (where only PBST was flowed over the chip) to correct for non-specific baseline drift.

Assay [4] concerns the target T3, TMEW19 (spTMEFF2(230-320)G3S-H6) (human, UniProt Q9UIK5 230-320).
T3 construct: Residues 230-320 of human TMEFF2 with G3S and 6xHis tag, all in the entry; also called TMEFF2 membrane proximal region; MP
T3 sequence: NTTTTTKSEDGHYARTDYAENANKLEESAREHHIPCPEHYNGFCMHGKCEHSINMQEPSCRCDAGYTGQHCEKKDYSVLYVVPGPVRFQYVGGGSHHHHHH
The description is as above. As to the method: as §2

Like-named read-outs stand apart in the source and are kept apart here.

For orientation: EC50 (read off the curve) means the concentration that produces a half-maximal response. Higher therefore signals weaker potency. The Kd is a measure of binding affinity in units of concentration. Low readings indicate tighter binding, high ones weaker binding. What is called koff is the first-order rate constant of dissociation. Low readings indicate a long-lived complex, high ones a short-lived complex. What is called kon is the rate constant with which the complex forms.

T1 sequence (Q04609 whole entry): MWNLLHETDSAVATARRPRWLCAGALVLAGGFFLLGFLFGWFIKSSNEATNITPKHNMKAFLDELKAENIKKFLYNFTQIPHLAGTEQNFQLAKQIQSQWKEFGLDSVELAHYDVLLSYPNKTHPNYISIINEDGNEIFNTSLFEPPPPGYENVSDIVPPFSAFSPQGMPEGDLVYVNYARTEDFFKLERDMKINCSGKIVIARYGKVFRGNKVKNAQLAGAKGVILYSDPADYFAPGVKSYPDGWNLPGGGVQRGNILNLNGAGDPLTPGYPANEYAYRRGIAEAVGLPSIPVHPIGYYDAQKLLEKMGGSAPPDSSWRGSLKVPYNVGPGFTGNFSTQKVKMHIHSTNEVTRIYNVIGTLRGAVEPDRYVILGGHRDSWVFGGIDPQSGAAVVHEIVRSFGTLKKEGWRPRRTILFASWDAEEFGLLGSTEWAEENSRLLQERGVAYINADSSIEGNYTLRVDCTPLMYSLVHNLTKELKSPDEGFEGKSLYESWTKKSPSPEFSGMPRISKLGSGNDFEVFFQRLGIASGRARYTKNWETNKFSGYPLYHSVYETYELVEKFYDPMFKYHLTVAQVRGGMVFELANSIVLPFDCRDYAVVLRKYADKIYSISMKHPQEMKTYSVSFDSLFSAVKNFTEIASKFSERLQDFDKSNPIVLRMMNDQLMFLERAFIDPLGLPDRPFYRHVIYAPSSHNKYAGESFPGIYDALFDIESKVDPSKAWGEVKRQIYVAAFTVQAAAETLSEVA

B1: PS3B27 (bispecific antibody)
chain 1: not shown
chain 2: not shown
chain 3: EVQLVESGGGLVQPGGSLRLSCAASGFTFNTYAMNWVRQAPGKGLEWVARIRSKYNNYATYYAASVKGRFTISRDDSKNSLYLQMNSLKTEDTAVYYCARHGNFGNSYVSWFAYWGQGTLVTVSSASTKGPSVFPLAPCSRSTSESTAALGCLVKDYFPEPVTVSWNSGALTSGVHTFPAVLQSSGLYSLSSVVTVPSSSLGTKTYTCNVDHKPSNTKVDKRVESKYGPPCPPCPAPEAAGGPSVFLFPPKPKDTLMISRTPEVTCVVVDVSQEDPEVQFNWYVDGVEVHNAKTKPREEQFNSTYRVVSVLTVLHQDWLNGKEYKCKVSNKGLPSSIEKTISKAKGQPREPQVYTLPPSQEEMTKNQVSLTCLVKGFYPSDIAVEWESNGQPENNYKTTPPVLDSDGSFLLYSKLTVDKSRWQEGNVFSCSVMHEALHNHYTQKSLSLSLGK
chain 4: QTVVTQEPSLTVSPGGTVTLTCRSSTGAVTTSNYANWVQQKPGQAPRGLIGGTNKRAPGTPARFSGSLLGGKAALTLSGVQPEDEAEYYCALWYSNLWVFGGGTKLTVLGQPKAAPSVTLFPPSSEELQANKATLVCLISDFYPGAVTVAWKADSSPVKAGVETTTPSKQSNNKYAASSYLSLTPEQWKSHRSYSCQVTHEGSTVEKTVAPTECS
B1: the “EC50 (read off the curve)” value in assay [1] and in assay [2] was about 6 nM in each case.

B2: TMEB674 (antibody, human IgG4 S228P, kappa, F234A L235A, V domains shown)
VH: VQLLESGGGLVQPPGGSLRLSCAASGFTFSSYSMSWVRQAPGKGLEWVSVISGGGSFTSYADSVKGRFTISRDNSNNTLYLQMSSLRAEDTAFYYCARMPLNSPHDCWGQGTLVTVSS
VL: AIQMTQSPSSLSASVGDRVTITCRASQGIRNDLGWYQQKPGKAPKLLIYAASSLQSGVPSRFSGSGSGTDFTLTISSLQPEDFATYYCLQDYNYSLTFGGGTKVEIRR
notes: IgG4 PAA anti-TMEFF2; also called TMEH410/TMEL126
In assay [3], B2 yielded a Kd of 0.1 nM, an off-rate constant (koff) of 0.000162 s⁻¹ and a kon of 2.01e+06 M⁻¹ s⁻¹. In assay [4], this molecule registered a Kd of 0.2 nM, a koff of 0.000175 s⁻¹ and a kon of 837000 M⁻¹ s⁻¹.

B3: TMEB675 (antibody, human IgG4 S228P, kappa, F234A L235A, V domains shown)
VH: EVQLLESGGGLVQRGGSLRPSCAASGFTFSSYSMSWVRQAPGKGLEWVSVISGSGGFTDYADSVKGRFTISRDNSKNTLYLHMNSLRAEDTAVYYCARMPLNSPHDYWGQGTLVTVSS
VL: AIQMTQSPSSLSASVGDRVTITCRASQGIRNDLGWYQQKPGKAPKLLIYAASSLQSGVPSRFSGSGSGTDFTLTISSLQPEDFATYYCLQDYNYALTFGGGTKVEIKR
notes: IgG4 PAA anti-TMEFF2; also called TMEH411/TMEL127
In assay [3], B3 yielded a Kd of 0.1 nM, an off-rate constant (koff) of 0.000153 s⁻¹ and a kon of 2.65e+06 M⁻¹ s⁻¹. In assay [4], this molecule showed a Kd of 0.2 nM, a koff of 0.000158 s⁻¹ and an on-rate constant (kon) of 972000 M⁻¹ s⁻¹.

B4: TMEB565 (antibody, human IgG4 S228P, kappa, F234A L235A, V domains shown)
VH: QVQLVQSGAEVKKPGSSVKVSCKASGGTFSSYYISWVRQAPGQGLEWMGGIIPISGRANYAQKFQGRVTITADESTSTAYMELSSLRSEDTAVYYCARDGYSSGRSTTYAFDYWGQGTLVTVSS
VL: EIVLTQSPGTLSLSPGERATLSCRASQSVATYYLAWYQQKPGQAPRLLIYGASSRATGIPDRFSGSGSGTDFTLTISRLEPEDFAVYYCQQYGYNPITFGQGTKVEIKR
notes: IgG4 PAA anti-TMEFF2; also called TMEH396/TMEL111
In assay [3], B4 yielded an equilibrium dissociation constant (Kd) of 0.02 nM, a koff of 9.13e-06 s⁻¹ and a kon of 384000 M⁻¹ s⁻¹. In assay [4], this molecule came in with a Kd of 0.01 nM, an off-rate constant (koff) of 6.39e-06 s⁻¹ and a kon of 777000 M⁻¹ s⁻¹.

B5: TMEB570 (antibody, human IgG4 S228P, kappa, F234A L235A, V domains shown)
VH: QVQLVQSGAEVKKPGSSVKVSCKASGGTFSSYYISWVRQAPGQGLEWMGGIIPISGRANYAQKFQGRVTITADESTSTAYMELSSLRSEDTAVYYCARDGYSSGRSTTYAFDYWGQGTLVTVSS
VL: EIVLTQSPGTLSLSPGERATLSCRASQSVSTYYLAWYQQKPGQAPRLLIYGASYRATGIPDRFSGSGSGTDFTLTISRLEPEDFAVYYCQQYGHSPITFGQGTKVEIKR
notes: IgG4 PAA anti-TMEFF2; also called TMEH396/TMEL112
In assay [3], B5 had a dissociation constant (Kd) of 0.11 nM, a koff of 5.13e-05 s⁻¹ and an on-rate (kon) of 464000 M⁻¹ s⁻¹. In assay [4], this molecule yielded an equilibrium dissociation constant (Kd) of 0.06 nM, a koff of 4.67e-05 s⁻¹ and a kon of 762000 M⁻¹ s⁻¹.

B6: PS3B75 (bispecific antibody, human IgG4 S228P, kappa, F234A L235A)
heavy: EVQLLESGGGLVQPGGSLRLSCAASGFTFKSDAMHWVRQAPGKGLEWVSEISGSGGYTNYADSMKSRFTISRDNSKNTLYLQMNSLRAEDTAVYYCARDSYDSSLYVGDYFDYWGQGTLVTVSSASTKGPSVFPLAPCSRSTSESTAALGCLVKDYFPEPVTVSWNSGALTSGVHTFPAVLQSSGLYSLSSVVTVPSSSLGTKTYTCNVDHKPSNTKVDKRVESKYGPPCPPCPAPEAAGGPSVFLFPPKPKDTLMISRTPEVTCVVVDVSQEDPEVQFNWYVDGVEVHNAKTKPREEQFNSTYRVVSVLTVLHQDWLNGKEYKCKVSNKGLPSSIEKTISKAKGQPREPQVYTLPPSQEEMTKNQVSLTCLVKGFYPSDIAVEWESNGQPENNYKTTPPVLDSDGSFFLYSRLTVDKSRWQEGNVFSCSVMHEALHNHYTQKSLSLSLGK
light: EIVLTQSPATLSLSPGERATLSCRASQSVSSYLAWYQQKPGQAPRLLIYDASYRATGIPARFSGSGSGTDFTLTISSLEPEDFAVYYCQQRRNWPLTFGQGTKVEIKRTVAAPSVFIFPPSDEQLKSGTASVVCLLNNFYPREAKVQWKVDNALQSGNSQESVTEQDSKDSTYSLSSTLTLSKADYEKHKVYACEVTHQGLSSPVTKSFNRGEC
VH: EVQLVESGGGLVQPGGSLRLSCAASGFTFNTYAMNWVRQAPGKGLEWVARIRSKYNNYATYYAASVKGRFTISRDDSKNSLYLQMNSLKTEDTAVYYCARHGNFGNSYVSWFAYWGQGTLVTVSS
VL: QTVVTQEPSLTVSPGGTVTLTCRSSTGAVTTSNYANWVQQKPGQAPRGLIGGTNKRAPGTPARFSGSLLGGKAALTLSGVQPEDEAEYYCALWYSNLWVFGGGTKLTVL
notes: IgG4 PAA; CD3 arm with F405L, R409K; also called PSMB363 x CD3B219
As for B6, the binding result in assay [1] is on record as “binds”.
